The assay deals with T1, full length human p53 fused in frame with the B42D activation domain (pJG4-5) (human, UniProt P04637 1-393).
T1 construct: mature; Yeast two hybrid prey
Nature of the assay: yeast two hybrid, X-gal colony colour. The source says: To determine whether protein-protein interactions are involved, and which part of Msx1 are involved if any, in the stabilization of p53 leading to apoptosis of cells by Msx1, yeast two hybrid assays were used as previously described (Gyuris et al., Cell 75: 791-803, 1993; Part et al., ibid).
Briefly, to this end, four Msx1 constructs (FIG. 3A top) were made as described in Example 1. DNA fragments encoding full length human HPV-E6 and p53 proteins were isolated by PCR from the cDNA library derived from HeLa cells (Clontech) and cloned into pJG4-5 at unique EcoRI and XhoI sites for in-frame fusion of each cDNA with B42D activation domain. The truncated constructs of Msx1 as shown in FIG. 3A were obtained by PCR using specific set of primers designed for each deletion product and pCB6+/Msx1 as a template. Each amplified Msx1 fragment was then inserted into a pGlida vector (Clontech) using BamHI and XhoI sites to express it as a fusion protein with LexA. Each pGlida and pJG4-5 fusion construct prepared was then introduced into the testing yeast strain EGY48. […] The binding activity between HPV-E6 and Msx1 was also determined quantitatively by the relative expression level of β-galactosidase as described (Rho, S B et al., FEBS Lett 557: 57-63, 2004; Rho, S B et al., PNAS USA 93:10128-33,1996).

Consider one molecule from US20090088402A1 (SUNGKYUNKWAN UNIVERSITY FOUNDATION FOR CORPORATE …, published 2009).

B1: Msx1 construct lacking homeodomain (1-165) expressed as a fusion protein with LexA (other)
chain: MTSLPLGVKVEDSAFGKPAGGGAGQAPSAAAATAAAMGADEEGAKPKVSPSLLPFSVEALMADHRKPGAKESALAPSEGVQAAGGSAQPLGVPPGSLGAPDAPSSPRPLGHFSVGGLLKLPEDALVKAESPEKPERTPWMQSPRFSPPPARRLSPPACTLRKHKT
notes: Yeast two hybrid bait; not shown: LexA as encoded by the pGlida vector (Clontech)
As to B1, the binding result was “no binding”.
